# Reference: publication doi:10.1101/2024.01.03.573942 (bioRxiv, 2024)
# B1: Macro domain of ThsA(amylo) (residues 83-297), type II Thoeris of Bacillus amyloliquefaciens Y2 (domain or fragment, UniProt I2C645 83-297, looked up)
# chain: NNITLNLNGSEVEIKKGDIFEVPRNNYKVIAFNEYFDTQVDDVIIARETLNGQYIKRYYSHQDITELDQKIKDDVKLKIEEKNVERPFGGKTTRYSLGSVFKDMDFFLVAFSKFDRENRAQLKLNEYASCMLNVWNEINTLHASKEVFIPLLGSGITRHVDSDVGVNELLHIMLWTFQISKVKFREPAKVTILLYKNDHKKINFYKLKEFEKNGL
# Assays:
# [1] = target: ModTad2 (Tad2 homolog encoded by a prophage of Myroides odoratus) (prophage of Myroides odoratus); experiment: crystal structure
# crystal structure = target: the molecule itself; experiment: crystal structure
Molecule,stoichiometry N [1],stoichiometry N (crystal structure)
ModTad2 (Tad2 homolog encoded by a prophage of Myroides odoratus) (natural protein),4,–
B1,–,2
